This is an account of results in article PMC12581835, “A kinetic ruler controls mRNA poly(A) tail length”.

The target in series [1] is Nab2-FRB (S. cerevisiae | not stated).
For series [2], the target named is T1, SII-Nab2 (Saccharomyces cerevisiae, UniProt P32505 1-525).
T1 sequence: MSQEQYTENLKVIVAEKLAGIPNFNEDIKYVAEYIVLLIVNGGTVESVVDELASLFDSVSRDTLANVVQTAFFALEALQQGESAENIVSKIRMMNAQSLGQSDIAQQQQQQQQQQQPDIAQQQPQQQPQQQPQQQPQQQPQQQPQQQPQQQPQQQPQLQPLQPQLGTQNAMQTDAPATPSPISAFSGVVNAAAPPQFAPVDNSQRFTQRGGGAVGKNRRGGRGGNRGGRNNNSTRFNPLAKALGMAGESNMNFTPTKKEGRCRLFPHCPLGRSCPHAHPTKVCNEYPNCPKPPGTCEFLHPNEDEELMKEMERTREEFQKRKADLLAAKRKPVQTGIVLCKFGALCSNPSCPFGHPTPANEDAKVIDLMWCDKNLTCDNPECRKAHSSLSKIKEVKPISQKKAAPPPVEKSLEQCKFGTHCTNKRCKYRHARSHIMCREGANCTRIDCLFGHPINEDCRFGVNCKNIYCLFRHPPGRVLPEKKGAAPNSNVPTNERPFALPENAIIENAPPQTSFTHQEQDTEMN
The experiment in a line: switchSENSE; kon 2.05e6 +/- 0.14e6 M-1 s-1; Kd only in Fig 2E table; switchSENSE: 12.5 mM HEPES-KOH pH 8.0, 75 mM KOAc, 1 mM Mg(OAc)2, 0.025 mM EDTA, 25 C; EMSA: polyadenylation buffer + 5% glycerol, 10 nM RNA, 30 C 1.5 h, native PAGE pH 6.4 at 4 C. The note with it: protein: recombinant; tags: N-terminal SII; label: red dye on NL-B48; chip-tethered; 68 bp dsDNA (nicked) with 3' RNA overhang 60 nt.

Series [3] deals with T1, SII-Nab2. The experiment in a line: switchSENSE; kon 1.2e6 +/- 0.17e6 M-1 s-1; Kd only in Fig 2E table; switchSENSE: 12.5 mM HEPES-KOH pH 8.0, 75 mM KOAc, 1 mM Mg(OAc)2, 0.025 mM EDTA, 25 C; EMSA: polyadenylation buffer + 5% glycerol, 10 nM RNA, 30 C 1.5 h, native PAGE pH 6.4 at 4 C. The note with it: protein: recombinant; tags: N-terminal SII; label: red dye on NL-B48; chip-tethered; 68 bp dsDNA (nicked) with 3' RNA overhang 30 nt. (Mobility shift assays separate free from complexed probe on a gel.)

Series [4] deals with T2, Nab2-6xHis (Saccharomyces cerevisiae, UniProt P32505 1-525).
T2 sequence: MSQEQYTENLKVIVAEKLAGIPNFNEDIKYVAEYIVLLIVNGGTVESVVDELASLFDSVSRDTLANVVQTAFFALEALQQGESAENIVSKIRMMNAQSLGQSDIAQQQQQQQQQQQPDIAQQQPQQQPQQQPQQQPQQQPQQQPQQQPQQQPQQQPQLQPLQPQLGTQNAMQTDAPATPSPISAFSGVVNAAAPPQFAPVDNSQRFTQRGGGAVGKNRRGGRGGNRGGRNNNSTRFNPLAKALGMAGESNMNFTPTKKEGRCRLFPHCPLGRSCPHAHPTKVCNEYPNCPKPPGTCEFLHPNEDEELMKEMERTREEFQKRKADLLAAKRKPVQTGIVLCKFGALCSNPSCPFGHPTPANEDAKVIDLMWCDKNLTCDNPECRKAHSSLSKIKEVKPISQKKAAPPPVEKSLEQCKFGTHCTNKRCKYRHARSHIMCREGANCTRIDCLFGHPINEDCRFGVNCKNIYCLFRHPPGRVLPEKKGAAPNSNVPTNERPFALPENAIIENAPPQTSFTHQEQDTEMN
The experiment in a line: SEC-MALS; bimodal peak; one Nab2 with 1-3 A30; dimer less stable; switchSENSE: 12.5 mM HEPES-KOH pH 8.0, 75 mM KOAc, 1 mM Mg(OAc)2, 0.025 mM EDTA, 25 C; EMSA: polyadenylation buffer + 5% glycerol, 10 nM RNA, 30 C 1.5 h, native PAGE pH 6.4 at 4 C. As to conditions: protein: recombinant; tags: C-terminal 6xHis; single strand.

Series [5] concerns the target T2, Nab2-6xHis. The experiment in a line: EMSA; Hill coefficient 2.7; multiple shifted bands; switchSENSE: 12.5 mM HEPES-KOH pH 8.0, 75 mM KOAc, 1 mM Mg(OAc)2, 0.025 mM EDTA, 25 C; EMSA: polyadenylation buffer + 5% glycerol, 10 nM RNA, 30 C 1.5 h, native PAGE pH 6.4 at 4 C. As to conditions: protein: recombinant; tags: C-terminal 6xHis; label: Atto680; single strand.

Nab2-FKBP12: the modal poly(A) tail length of the substrate RNA that escaped early inhibition, 1 µM Nab2 with rapamycin (∼42 As in a reaction without rapamycin) in series [1] was determined as 36 As.

B1: rA60 nanolever (mixed)
DNA 1: ATTGTGCTCGTCAGTAGTGTAAAAAAAAAAAAAAAAAAAAAAAAAAAAAAAAAAAAAAAAAAAAAAAAAAAAAAAAAAAA
DNA 2: ACACTACTGACGAGCACAATATCAGCGTTCGATGCTTCCGACTAATCAGCCATATCAGCTTACGACTA
DNA 3: TAGTCGTAAGCTGATATGGCTGATTAGTCGGAAGCATCGAACGCTGAT
modifications: 3' 60 nt RNA on DNA handle
With B1, the binding signal with SII-Nab2 [2] was ~5 fold higher affinity than rA30.

B2: rA30 nanolever (mixed)
DNA 1: ATTGTGCTCGTCAGTAGTGTAAAAAAAAAAAAAAAAAAAAAAAAAAAAAA
DNA 2: ACACTACTGACGAGCACAATATCAGCGTTCGATGCTTCCGACTAATCAGCCATATCAGCTTACGACTA
DNA 3: TAGTCGTAAGCTGATATGGCTGATTAGTCGGAAGCATCGAACGCTGAT
modifications: 3' 30 nt RNA on DNA handle
In the case of B2, the binding signal in the series with SII-Nab2 [3] is ~0.2 affinity relative to rA60.

Take AAAAAAAAAAAAAAAAAAAAAAAAAAAAAA (ssRNA, phosphate) [A30 (R002)]: in the series with Nab2-6xHis [4], the binding result was “binds”.

B3: Atto680-A59 (R003) (ssRNA)
RNA: AAAAAAAAAAAAAAAAAAAAAAAAAAAAAAAAAAAAAAAAAAAAAAAAAAAAAAAAAAA
With B3, the binding result with Nab2-6xHis [5] is given as “binds”.
